Data reported in the supplement of paper PMC10567573.

B1: DVL3 (parent)
chain: FCADNPSELPPPMERTGGIGDSRP

Variants of: B1
Test: protein stability index of a GFP-peptide fusion (GPS, HEK-293T) (PSI 1-6); higher = more stable
Settings: c terminus: a fixed tail appended
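Further: lentivirally expressed fusions sorted by FACS into six bins by GFP to DsRed ratio, PSI derived from sequencing read proportions per bin multiplied by bin number.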

Protein stability index of substitutions, site by site:
P11: W 3.64; A 5.1; G 4.16; L 4.64; Q 4.54; M 4.45; D 4.74; S 4.58; Y 4.23; F 3.83; N 4.26; C 4.33; I 4.54; V 3.94; T 5.12; R 3.91; E 4.05; H 4.43
M13: N 4.77; F 4.6; S 4.25; T 4.57; E 5.18; I 4.27; Y 4.07; G 4.67; A 5.31; L 4.98; Q 5; C 4.22; W 2.97; D 4.98; H 4.77; K 5.04; R 4.2; V 4.89
G18: W 3.41; Q 4.81; L 4.34; P 4.04; R 4.34; V 4; E 5.06; S 4.64; H 4.34; I 4.05; Y 3.38; C 4.57; K 4.88; F 4.03; M 4.17; N 4.89; D 4.77; T 4.47; A 4.49
R15: N 4.79; W 3.77; Q 4.37; P 4.99; C 4.69; F 4.1; V 4.5; H 4.97; T 4.55; S 4.82; M 4.25; E 5.37; L 4.51; K 4.45; I 4.56; A 5.48; D 4.76; Y 4.39; G 4.56
P10: K 4.37; T 4.61; S 4.38; Y 3.74; W 3.13; V 4.49; L 4.32; N 4.54; M 4.54; R 4.08; Q 4.27
E14: D 4.55; S 4.31; I 3.98; C 3.68; F 3.45; P 4.27; N 4.35; Y 3.13; K 4.07; R 3.78; T 4.1; G 3.84; L 3.05; H 4.08; W 1.93; Q 4.1; A 4.24; M 4.37
P12: D 5.2; I 3.76; K 4.69; S 4.07; Q 4.75; F 3.41; T 3.99; A 5.55; H 4.61; M 4.19; R 3.93; Y 3.63; G 4.39; E 4.89; C 4.07; N 4.69; L 4.63; W 1.75; V 4.62
T16: M 4.11; W 2.55; Q 5; K 4.29; E 4.45; A 4.6; D 5.18; Y 3.96; R 4.5; H 4.33; P 3.87; F 3.95; S 4.25; L 3.8; G 4.45; C 4.07; N 4.7; V 4.02; I 3.98
G17: D 4.61; E 4.54; R 4.62; S 4.3; M 4.48; V 4.12; K 4.89; F 3.79; N 4.74; Q 4.73; P 4.85; T 4.48; Y 3.91; L 4.12; I 4.09; A 4.51; H 4.69
I19: N 4.82; A 5.33; M 4.8; F 4.37; C 4.94; D 4.94; K 5.59; H 5.16; E 5.77
